Experimental data published in patent US20200079833A1 (AstraZeneca / MedImmune, published 2020).
Starred links: 1 amine or outer side, 2 acyl side, 3 side chain; linkers in the order of their positions; H or OH if unused. Non-standard residues stand in square brackets, D forms with d. Groups on a side chain read outwards from the residue. Primed or numbered codes have the meaning given here. No end group written: not given here. *: point of attachment. γGlu = O=C(O)[C@H](CCC(=O)[*:2])N[*:1]; Stearoyl = CCCCCCCCCCCCCCCCCC(=O)*; αMeF = C[C@](N)(Cc1ccccc1)C(=O)O; αMeK = C[C@](N)(CCCCN)C(=O)O; αMeS = C[C@](N)(CO)C(=O)O; PEG2′ = not defined here; Aib = CC(C)(N)C(=O)O

T1: glucose-dependent insulinotropic peptide (gastric inhibitory polypeptide) receptor (GIPR) (human, UniProt P48546 22-466)
T1 sequence (looked up): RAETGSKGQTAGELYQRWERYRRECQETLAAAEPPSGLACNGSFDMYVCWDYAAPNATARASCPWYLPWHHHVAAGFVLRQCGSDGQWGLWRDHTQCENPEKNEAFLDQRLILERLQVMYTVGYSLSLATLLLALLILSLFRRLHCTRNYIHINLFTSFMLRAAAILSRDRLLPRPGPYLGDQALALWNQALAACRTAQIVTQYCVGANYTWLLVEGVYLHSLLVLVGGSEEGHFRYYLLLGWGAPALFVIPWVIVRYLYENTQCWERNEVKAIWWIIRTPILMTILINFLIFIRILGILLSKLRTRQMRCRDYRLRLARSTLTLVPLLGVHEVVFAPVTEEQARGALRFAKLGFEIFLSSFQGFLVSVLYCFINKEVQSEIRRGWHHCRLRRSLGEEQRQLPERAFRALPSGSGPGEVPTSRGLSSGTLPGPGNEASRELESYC


These binders were tested against GLP-1 receptor (GLP-1R) (human, UniProt P43220 24-463) (assay: cell-based or functional assay).

| Binder | cAMP Mean pM GLP-1R | cAMP Primary assay EC50 GLP-1R n1 | cAMP Primary assay EC50 GLP-1R n2 |
| --- | --- | --- | --- |
| H[Aib]EGS[αMeF]TSDV[αMeS]S[αMeF]LEGK([PEG2′-PEG2′-γGlu-Stearoyl])AA[αMeK]E[αMeF]IA[αMeF]VV[αMeK]GG-NH2 [SEQ ID NO 112] | 6 pM | 6.1 pM | 5.07 pM |
| H[Aib]EGS[αMeF]TSDV[αMeS]S[αMeF]LEGEAA[αMeK]K([PEG2′-PEG2′-γGlu-Stearoyl])[αMeF]IA[αMeF]VV[αMeK]GG-NH2 [SEQ ID NO 108] | 4 pM | 3.8 pM | 3.46 pM |
| H[Aib]EGS[αMeF]TSDV[αMeS]S[αMeF]LEK([PEG2′-PEG2′-γGlu-Stearoyl])EAA[αMeK]E[αMeF]IA[αMeF]VV[αMeK]GG-NH2 [SEQ ID NO 113] | 18 pM | 18 pM | 17.4 pM |
| H[Aib]EGS[αMeF]TSDV[αMeS]S[αMeF]LEGEAA[αMeK]E[αMeF]IK([PEG2′-PEG2′-γGlu-Stearoyl])[αMeF]VV[αMeK]GG-NH2 [SEQ ID NO 105] | 18 pM | 21 pM | 14.8 pM |

Continued, values first:

| cAMP Mean pM GLP-1R | cAMP Primary assay EC50 GLP-1R n1 | cAMP Primary assay EC50 GLP-1R n2 | Binder |
| --- | --- | --- | --- |
| 3640 pM | 4100 pM | 3130 pM | H[Aib]EGS[αMeF]TSK([PEG2′-PEG2′-γGlu-Stearoyl])V[αMeS]S[αMeF]LEGEAA[αMeK]E[αMeF]IA[αMeF]VV[αMeK]GG-NH2 [SEQ ID NO 120] |
| 9 pM | 9.3 pM | 9.12 pM | H[Aib]EGS[αMeF]TSDV[αMeS]SK([PEG2′-PEG2′-γGlu-Stearoyl])LEGEAA[αMeK]E[αMeF]IA[αMeF]VV[αMeK]GG-NH2 [SEQ ID NO 116] |
| 4660 pM | 4900 pM | 4430 pM | H[Aib]EGSK([PEG2′-PEG2′-γGlu-Stearoyl])TSDV[αMeS]S[αMeF]LEGEAA[αMeK]E[αMeF]IA[αMeF]VV[αMeK]GG-NH2 [SEQ ID NO 123] |
| 25200 pM | 25000 pM | 25200 pM | H[Aib]EGS[αMeF]K([PEG2′-PEG2′-γGlu-Stearoyl])SDV[αMeS]S[αMeF]LEGEAA[αMeK]E[αMeF]IA[αMeF]VV[αMeK]GG-NH2 [SEQ ID NO 122] |
| 503 pM | 550 pM | 458 pM | H[Aib]EGS[αMeF]TSDV[αMeS]S[αMeF]LK([PEG2′-PEG2′-γGlu-Stearoyl])GEAA[αMeK]E[αMeF]IA[αMeF]VV[αMeK]GG-NH2 [SEQ ID NO 114] |
| 17 pM | 18 pM | 15.7 pM | H[Aib]EGS[αMeF]TSDK([PEG2′-PEG2′-γGlu-Stearoyl])[αMeS]S[αMeF]LEGEAA[αMeK]E[αMeF]IA[αMeF]VV[αMeK]GG-NH2 [SEQ ID NO 119] |

These binders were tested against T1, glucose-dependent insulinotropic … (assay: cell-based or functional assay).

| Binder | cAMP Primary assay EC50 GIP-R | cAMP Primary assay EC50 GIP-R (2nd) |
| --- | --- | --- |
| H[Aib]EGS[αMeF]TSDV[αMeS]S[αMeF]LEGK([PEG2′-PEG2′-γGlu-Stearoyl])AA[αMeK]E[αMeF]IA[αMeF]VV[αMeK]GG-NH2 [SEQ ID NO 112] | 25 nM | 25.4 nM |
| H[Aib]EGS[αMeF]TSDV[αMeS]S[αMeF]LEGEAA[αMeK]K([PEG2′-PEG2′-γGlu-Stearoyl])[αMeF]IA[αMeF]VV[αMeK]GG-NH2 [SEQ ID NO 108] | 25 nM | 25.4 nM |
| H[Aib]EGS[αMeF]TSDV[αMeS]S[αMeF]LEK([PEG2′-PEG2′-γGlu-Stearoyl])EAA[αMeK]E[αMeF]IA[αMeF]VV[αMeK]GG-NH2 [SEQ ID NO 113] | 25 nM | 24.9 nM |
| H[Aib]EGS[αMeF]TSDV[αMeS]S[αMeF]LEGEAA[αMeK]E[αMeF]IK([PEG2′-PEG2′-γGlu-Stearoyl])[αMeF]VV[αMeK]GG-NH2 [SEQ ID NO 105] | 25 nM | 25 nM |

Second part, the binder after the results:

| cAMP Primary assay EC50 GIP-R | cAMP Primary assay EC50 GIP-R (2nd) | Binder |
| --- | --- | --- |
| 25 nM | 25.3 nM | H[Aib]EGS[αMeF]TSK([PEG2′-PEG2′-γGlu-Stearoyl])V[αMeS]S[αMeF]LEGEAA[αMeK]E[αMeF]IA[αMeF]VV[αMeK]GG-NH2 [SEQ ID NO 120] |
| 26 nM | 25.6 nM | H[Aib]EGS[αMeF]TSDV[αMeS]SK([PEG2′-PEG2′-γGlu-Stearoyl])LEGEAA[αMeK]E[αMeF]IA[αMeF]VV[αMeK]GG-NH2 [SEQ ID NO 116] |
| 26 nM | 25.6 nM | H[Aib]EGSK([PEG2′-PEG2′-γGlu-Stearoyl])TSDV[αMeS]S[αMeF]LEGEAA[αMeK]E[αMeF]IA[αMeF]VV[αMeK]GG-NH2 [SEQ ID NO 123] |
| 25 nM | 25.2 nM | H[Aib]EGS[αMeF]K([PEG2′-PEG2′-γGlu-Stearoyl])SDV[αMeS]S[αMeF]LEGEAA[αMeK]E[αMeF]IA[αMeF]VV[αMeK]GG-NH2 [SEQ ID NO 122] |
| 25 nM | 25.4 nM | H[Aib]EGS[αMeF]TSDV[αMeS]S[αMeF]LK([PEG2′-PEG2′-γGlu-Stearoyl])GEAA[αMeK]E[αMeF]IA[αMeF]VV[αMeK]GG-NH2 [SEQ ID NO 114] |
| 25 nM | 25.2 nM | H[Aib]EGS[αMeF]TSDK([PEG2′-PEG2′-γGlu-Stearoyl])[αMeS]S[αMeF]LEGEAA[αMeK]E[αMeF]IA[αMeF]VV[αMeK]GG-NH2 [SEQ ID NO 119] |

What follows are binders tested against glucagon receptor (GCGR) (human, UniProt P47871 26-477) (assay: cell-based or functional assay).
Sequence of glucagon receptor (GCGR) (P47871 26-477): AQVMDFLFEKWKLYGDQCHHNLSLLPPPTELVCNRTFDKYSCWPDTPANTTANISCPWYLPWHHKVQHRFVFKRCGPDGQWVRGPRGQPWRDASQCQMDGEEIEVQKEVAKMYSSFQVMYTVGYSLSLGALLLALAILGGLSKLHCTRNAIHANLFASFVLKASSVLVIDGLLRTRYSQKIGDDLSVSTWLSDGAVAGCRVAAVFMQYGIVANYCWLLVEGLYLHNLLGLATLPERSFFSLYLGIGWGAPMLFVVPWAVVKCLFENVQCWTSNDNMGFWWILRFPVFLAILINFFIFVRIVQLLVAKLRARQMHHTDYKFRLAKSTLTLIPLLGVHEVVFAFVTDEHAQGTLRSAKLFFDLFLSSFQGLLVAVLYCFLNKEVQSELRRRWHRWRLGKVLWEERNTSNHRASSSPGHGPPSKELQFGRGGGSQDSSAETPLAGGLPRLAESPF

| Binder | cAMP Primary assay EC50 Gluc-R | cAMP Primary assay EC50 Gluc-R (2nd) |
| --- | --- | --- |
| H[Aib]EGS[αMeF]TSDV[αMeS]S[αMeF]LEGK([PEG2′-PEG2′-γGlu-Stearoyl])AA[αMeK]E[αMeF]IA[αMeF]VV[αMeK]GG-NH2 [SEQ ID NO 112] | 25 nM | 25.4 nM |
| H[Aib]EGS[αMeF]TSDV[αMeS]S[αMeF]LEGEAA[αMeK]K([PEG2′-PEG2′-γGlu-Stearoyl])[αMeF]IA[αMeF]VV[αMeK]GG-NH2 [SEQ ID NO 108] | 25 nM | 25.4 nM |
| H[Aib]EGS[αMeF]TSDV[αMeS]S[αMeF]LEK([PEG2′-PEG2′-γGlu-Stearoyl])EAA[αMeK]E[αMeF]IA[αMeF]VV[αMeK]GG-NH2 [SEQ ID NO 113] | 25 nM | 24.9 nM |
| H[Aib]EGS[αMeF]TSDV[αMeS]S[αMeF]LEGEAA[αMeK]E[αMeF]IK([PEG2′-PEG2′-γGlu-Stearoyl])[αMeF]VV[αMeK]GG-NH2 [SEQ ID NO 105] | 25 nM | 25 nM |

Continued, values first:

| cAMP Primary assay EC50 Gluc-R | cAMP Primary assay EC50 Gluc-R (2nd) | Binder |
| --- | --- | --- |
| 25 nM | 25.3 nM | H[Aib]EGS[αMeF]TSK([PEG2′-PEG2′-γGlu-Stearoyl])V[αMeS]S[αMeF]LEGEAA[αMeK]E[αMeF]IA[αMeF]VV[αMeK]GG-NH2 [SEQ ID NO 120] |
| 26 nM | 25.6 nM | H[Aib]EGS[αMeF]TSDV[αMeS]SK([PEG2′-PEG2′-γGlu-Stearoyl])LEGEAA[αMeK]E[αMeF]IA[αMeF]VV[αMeK]GG-NH2 [SEQ ID NO 116] |
| 26 nM | 25.6 nM | H[Aib]EGSK([PEG2′-PEG2′-γGlu-Stearoyl])TSDV[αMeS]S[αMeF]LEGEAA[αMeK]E[αMeF]IA[αMeF]VV[αMeK]GG-NH2 [SEQ ID NO 123] |
| 25 nM | 25.2 nM | H[Aib]EGS[αMeF]K([PEG2′-PEG2′-γGlu-Stearoyl])SDV[αMeS]S[αMeF]LEGEAA[αMeK]E[αMeF]IA[αMeF]VV[αMeK]GG-NH2 [SEQ ID NO 122] |
| 25 nM | 25.4 nM | H[Aib]EGS[αMeF]TSDV[αMeS]S[αMeF]LK([PEG2′-PEG2′-γGlu-Stearoyl])GEAA[αMeK]E[αMeF]IA[αMeF]VV[αMeK]GG-NH2 [SEQ ID NO 114] |
| 25 nM | 25.2 nM | H[Aib]EGS[αMeF]TSDK([PEG2′-PEG2′-γGlu-Stearoyl])[αMeS]S[αMeF]LEGEAA[αMeK]E[αMeF]IA[αMeF]VV[αMeK]GG-NH2 [SEQ ID NO 119] |
